Source: the Human Domainome abundance scans (Beltran et al. 2025)

B1: 3'-5' exoribonuclease 1, residues 65 to 114; numbered along this chain, Q8IV48 (parent)
chain: VYKEIAITNGCINRMSKEELRAKLSEFKLETRGVKDVLKKRLKNYYKKQK
B2: Protein C-ets-1, residues 55 to 135; numbered along this chain, P14921 (parent)
chain: GFTKEQQRLGIPKDPRQWTETHVRDWVMWAVNEFSLKGVDFQKFCMNGAALCALGKDCFLELAPDFVGDILWEHLEILQKE

Variants of: B1
Experiment: abundance fitness (aPCA) (normalised: wild type 0, dead -1); higher = more abundant; growth selection in yeast, the domain comes from the species named
Conditions: Homo sapiens

Abundance fitness, by site and new letter:
Y46: T -0.125 | F 0.116 | E -0.703 | C 0.066 | K -0.32 | I 0.114 | Q -0.166 | M 0.111 | W -0.229 | N -0.268 | G -0.533 | S -0.277 | L 0.079 | P -1
Y45: D -0.954 | T -1 | R -0.878 | C -0.399 | E -0.63 | I -0.664 | W -0.051 | K -0.916 | V -0.8 | M -0.643 | L -0.637 | A -0.383 | H -0.048 | S -0.279 | F -0.094 | G -0.891 | N -0.64 | P -0.995 | Q -0.876
K48: P -0.87 | G -0.25 | Y -0.279 | R -0.072 | H -0.213 | M -0.22 | Q -0.211 | V -0.432 | T -0.175 | C -0.323 | F -0.51 | N -0.164 | S -0.158 | I -0.611 | L -0.264 | W -0.393 | A -0.187 | D -0.329
K47: F -0.572 | W -0.608 | C -0.491 | V -0.422 | Q -0.325 | I -0.415 | N -0.155 | R -0.132 | Y -0.533 | L -0.381 | D -0.643 | T -0.416 | A -0.288 | H -0.409 | M -0.34 | G -0.447
Q49: V -0.182 | N -0.099 | E -0.192 | C -0.154 | Y -0.065 | L -0.099 | D -0.353 | F -0.208 | T -0.064 | H -0.109 | G -0.306 | W -0.206 | A -0.164 | R -0.221 | K -0.083 | I -0.074 | S -0.19 | M -0.04
N44: R 0.017 | T -0.086 | P -0.767 | V -0.318 | W -0.376 | S -0.087 | H -0.065 | G -0.158 | C -0.211 | E -0.193 | K 0.05 | M -0.164 | Q -0.063 | L -0.168 | F -0.306 | A -0.021 | Y -0.27
K50: E -0.13 | W -0.052 | I -0.157 | T -0.179 | Q -0.123 | R -0.089 | V -0.081 | M -0.216 | Y -0.162 | P -0.201 | D -0.347 | G -0.299 | L -0.058 | A -0.159 | N -0.06 | H -0.164
K43: V -0.597 | R -0.366 | T -0.55 | Y -0.723

Variants of: B2
Experiment: as above
Conditions: Homo sapiens

Abundance fitness of substitutions, site by site:
I11: R -0.132 | V -0.09 | L -0.013 | D -0.647 | C -0.108 | G -0.583 | M -0.043 | A -0.326 | P -0.465 | E -0.773 | K -0.695 | N -0.288 | Y -0.207 | T -0.205 | H -0.364 | W -0.078 | S -0.344
E5: Q -0.123 | H -0.087 | W -0.186 | K -0.183 | M -0.018 | F -0.088 | Y -0.045 | R -0.132 | L -0.108 | S -0.245 | A -0.062 | I -0.105 | G -0.253 | T -0.117 | C -0.129 | D -0.216 | V -0.05
R8: L -0.086 | N -0.16 | S -0.136 | T -0.111 | Y -0.212 | E -0.074 | M -0.138 | H -0.095 | W -0.169 | G -0.112 | D -0.093
